According to publication PMC9245664 (Proceedings of the National Academy of Sciences of the …, 2022):
Where a chain is given by its changes, count along the chain named.

Key:
Test in all cases: NMR titration
[1] = molecular target: T1, Wzc_(CDΔC,ΔCys) (Cys544Ser/Cys563Ser) (E. coli (K-12), UniProt P76387 447-704, Cys544Ser | Cys563Ser)
T1 sequence: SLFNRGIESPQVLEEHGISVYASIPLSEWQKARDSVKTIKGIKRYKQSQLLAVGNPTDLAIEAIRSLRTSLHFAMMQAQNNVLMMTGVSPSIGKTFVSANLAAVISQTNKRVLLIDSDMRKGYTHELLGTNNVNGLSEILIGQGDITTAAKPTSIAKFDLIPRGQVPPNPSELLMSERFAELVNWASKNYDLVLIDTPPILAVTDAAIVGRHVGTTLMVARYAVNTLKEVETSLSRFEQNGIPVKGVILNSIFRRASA

[2] = molecular target: T2, Wzc_(CDΔC,ΔCys,Gln523Cys) (E. coli (K-12), UniProt P76387 447-704, Cys544Ser | Cys563Ser | Gln523Cys)
T2 sequence: T1 sequence with Q77C

[3] = molecular target: T3, Wzc_(CDΔC,ΔCys,Val466Cys) (E. coli (K-12), UniProt P76387 447-704, Cys544Ser | Cys563Ser | Val466Cys)
T3 sequence: T1 sequence with V20C

[4] = molecular target: T4, Wzc_(CDΔC,ΔCys,Lys556Cys) (E. coli (K-12), UniProt P76387 447-704, Cys544Ser | Cys563Ser | Lys556Cys)
T4 sequence: T1 sequence with K110C

[5] = molecular target: T5, Wzc_(CDΔC,ΔCys,Leu505Cys) (E. coli (K-12), UniProt P76387 447-704, Cys544Ser | Cys563Ser | Leu505Cys)
T5 sequence: T1 sequence with L59C

[6] = molecular target: T6, Wzc_(CDΔC,ΔCys,Ser516Cys) (E. coli (K-12), UniProt P76387 447-704, Cys544Ser | Cys563Ser | Ser516Cys)
T6 sequence: T1 sequence with S70C

- Kd [1]: 15.2 ± 0.6 µM
- Kd [2]: 16.9 ± 0.5 µM
- Kd [3]: 8.9 ± 0.3 µM
- Kd [4]: 7.3 ± 0.4 µM
- Kd [5]: 43.8 ± 1.3 µM
- Kd [6]: 11.3 ± 0.7 µM
B1: full-length E. coli (K-12) Wzb, wild type (enzyme)
chain: MFNNILVVCVGNICRSPTAERLLQRYHPELKVESAGLGALVGKGADPTAISVAAEHQLSLEGHCARQISRRLCRNYDLILTMEKRHIERLCEMAPEMRGKVMLFGHWDNECEIPDPYRKSRETFAAVYTLLERSARQWAQALNAEQV
